Reference: US20260022175A1 (Chugai, published 2026)

T1: human FcγRIIa H extracellular domain (human, UniProt P12318 34-217)
T1 construct: extracellular domain; also called hFcγR IIa H
T1 sequence (looked up): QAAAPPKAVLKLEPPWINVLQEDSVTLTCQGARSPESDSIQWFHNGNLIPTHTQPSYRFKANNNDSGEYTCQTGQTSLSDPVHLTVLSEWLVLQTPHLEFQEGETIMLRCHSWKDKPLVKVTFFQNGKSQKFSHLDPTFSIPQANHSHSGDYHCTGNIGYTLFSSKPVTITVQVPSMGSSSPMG

T2: human FcγRIIb extracellular domain (human, UniProt P31994 43-217)
T2 construct: extracellular domain; also called hFcγR IIb
T2 sequence (looked up): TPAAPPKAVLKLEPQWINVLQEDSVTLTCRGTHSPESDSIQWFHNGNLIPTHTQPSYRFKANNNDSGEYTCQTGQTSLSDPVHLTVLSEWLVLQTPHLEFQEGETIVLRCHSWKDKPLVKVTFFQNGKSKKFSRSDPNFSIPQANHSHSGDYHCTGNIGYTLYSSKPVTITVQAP

T3: human FcγRIIa R extracellular domain (human, UniProt P12318 34-217)
T3 construct: extracellular domain; also called hFcγR IIa R
T3 sequence (looked up): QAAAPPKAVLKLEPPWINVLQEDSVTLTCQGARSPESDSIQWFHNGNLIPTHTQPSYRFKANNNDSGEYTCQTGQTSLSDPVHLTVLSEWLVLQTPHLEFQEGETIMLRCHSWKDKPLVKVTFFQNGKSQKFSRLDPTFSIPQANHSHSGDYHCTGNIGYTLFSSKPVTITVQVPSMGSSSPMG

T4: hFcγRIIaH on hFcγRIIaH-expressing Jurkat cells (human, UniProt P12318 34-317)
T4 sequence (looked up): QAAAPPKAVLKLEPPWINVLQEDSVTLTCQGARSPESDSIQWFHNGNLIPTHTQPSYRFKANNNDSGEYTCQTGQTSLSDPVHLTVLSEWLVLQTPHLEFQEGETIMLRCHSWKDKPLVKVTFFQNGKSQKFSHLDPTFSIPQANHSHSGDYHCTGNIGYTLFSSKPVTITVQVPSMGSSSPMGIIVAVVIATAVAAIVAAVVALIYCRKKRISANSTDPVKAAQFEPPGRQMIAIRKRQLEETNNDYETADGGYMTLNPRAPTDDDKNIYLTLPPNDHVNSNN


What was measured:
[1] = biological target: hFcγRIIIaV on hFcγRIIIaV-expressing Jurkat cells (human, UniProt P08637 17-254); experiment: cell-based or functional assay
Sequence of hFcγRIIIaV on hFcγRIIIaV-expressing Jurkat cells (P08637 17-254, form in doubt): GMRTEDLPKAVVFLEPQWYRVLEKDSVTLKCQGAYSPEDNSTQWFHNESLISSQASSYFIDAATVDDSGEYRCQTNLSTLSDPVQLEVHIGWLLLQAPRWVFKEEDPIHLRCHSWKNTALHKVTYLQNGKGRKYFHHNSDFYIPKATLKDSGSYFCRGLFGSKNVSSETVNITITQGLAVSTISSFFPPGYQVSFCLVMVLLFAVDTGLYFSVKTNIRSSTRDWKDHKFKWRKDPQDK

[2] = biological target: T1, human FcγRIIa H extracellular domain; experiment: SPR Biacore 8K+; KD of G1d divided by KD of this antibody;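 also: antibodies captured on an anti-Fab-kappa streptavidin chip, soluble FcγR ectodomains flowed over, KD by steady-state fit for FcγRIIb and Langmuir kinetic model for the other receptors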
Experimental: (§1) The interaction between the produced antibodies and human FcγRs was analyzed using Biacore 8K+ by the method below. For the running buffer, 50 mM Na-Phosphate, 150 mM NaCl, and 0.05% Tween20 (pH 7.4) was used, and measurement was performed at 25° C. The sensor chip used was a Series S SA chip (GE Healthcare) onto which CaptureSelect Human Fab-kappa Kinetics Biotin Conjugate (Thermo Fisher Scientific) was immobilized. An antibody of interest was captured onto this chip, and each FcγR diluted with the running buffer was allowed to interact with it. The chip was regenerated using 10 mM Glycine-HCl (pH 1.5), and repeatedly used to capture antibodies and perform measurement. The dissociation constants KD (mol/L) of each antibody for FcγRs were calculated using Biacore Insight Evaluation Software, with a steady state affinity model for the dissociation constant for FcγRIIb and a 1:1 Langmuir binding model for the dissociation constants for the other FcγRs (Table 48).

[3] = biological target: T5, human FcγRIIIa F extracellular domain (human, UniProt P08637 17-208); experiment: as above
T5 construct: extracellular domain; also called hFcγR IIIa F
T5 sequence (P08637 17-208): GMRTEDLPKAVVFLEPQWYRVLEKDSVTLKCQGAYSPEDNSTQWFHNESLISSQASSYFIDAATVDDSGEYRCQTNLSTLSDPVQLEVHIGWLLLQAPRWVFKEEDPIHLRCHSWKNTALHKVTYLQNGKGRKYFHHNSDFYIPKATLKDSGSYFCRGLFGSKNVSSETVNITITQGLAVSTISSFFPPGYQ
Experimental: as §1

[4] = biological target: T2, human FcγRIIb extracellular domain; experiment: as above
Experimental: as §1

[5] = biological target: T3, human FcγRIIa R extracellular domain; experiment: as above
Experimental: as §1

[6] = biological target: T6, human FcγRIa extracellular domain (human, UniProt P12314 16-292); experiment: as above
T6 construct: extracellular domain; also called hFcγR Ia; hFcγRIa
T6 sequence (P12314 16-292): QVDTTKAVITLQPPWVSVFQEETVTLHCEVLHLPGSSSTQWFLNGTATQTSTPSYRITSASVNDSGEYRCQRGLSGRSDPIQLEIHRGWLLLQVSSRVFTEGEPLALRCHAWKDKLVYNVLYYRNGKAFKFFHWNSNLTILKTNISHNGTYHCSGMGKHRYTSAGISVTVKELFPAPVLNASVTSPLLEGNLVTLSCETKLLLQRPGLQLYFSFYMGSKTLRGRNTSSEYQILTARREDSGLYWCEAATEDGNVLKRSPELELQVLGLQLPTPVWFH
Experimental: as §1

[7] = biological target: T7, human FcγRIIIa V extracellular domain (human, UniProt P08637 17-208); experiment: as above
T7 construct: extracellular domain; also called hFcγR IIIa V
T7 sequence (P08637 17-208 F176V limits assumed): as the sequence (P08637 17-208) above, with F160V counted along it
Experimental: as §1

[8] = biological target: T1, human FcγRIIa H extracellular domain; experiment: SPR Biacore 8K+, antibody captured, FcγR as analyte, 1:1 Langmuir model;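 also: antibodies captured on a streptavidin chip through a biotinylated anti-human Fab kappa reagent, with FcγR extracellular domains injected in pH 7.4 phosphate buffer at 25 °C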
[9] = biological target: T5, human FcγRIIIa F extracellular domain; experiment: as above
[10] = biological target: T3, human FcγRIIa R extracellular domain; experiment: as above
[11] = biological target: T6, human FcγRIa extracellular domain; experiment: as above
[12] = biological target: T7, human FcγRIIIa V extracellular domain; experiment: as above
[13] = biological target: T1, human FcγRIIa H extracellular domain; experiment: SPR Biacore 8K+; KD for FcγRIIb divided by KD for this FcγR;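 also: antibodies captured on an anti-human Fab kappa SA chip with soluble human FcγR ectodomains flowed over, FcγRIIb KD from steady-state fit, other FcγR KD from Langmuir model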
[14] = biological target: T5, human FcγRIIIa F extracellular domain; experiment: as above
[15] = biological target: T3, human FcγRIIa R extracellular domain; experiment: as above
[16] = biological target: T7, human FcγRIIIa V extracellular domain; experiment: as above
[17] = biological target: T2, human FcγRIIb extracellular domain; experiment: SPR Biacore 8K+, antibody captured, FcγR as analyte, steady state affinity model
[18] = biological target: T8, human C1q protein (Calbiochem) (human, UniProt P02745 23-245; P02746 28-253; P02747 29-245); experiment: ELISA: antibody coated on the plate at the varied concentration, hC1q 3 µg/mL added, detected with HRP-conjugated anti-hC1q antibody, O.D (450-690nm)
T8 construct: bought; also called hC1q
T8 sequence (P02745 23-245 limits assumed, chain 1 of 3): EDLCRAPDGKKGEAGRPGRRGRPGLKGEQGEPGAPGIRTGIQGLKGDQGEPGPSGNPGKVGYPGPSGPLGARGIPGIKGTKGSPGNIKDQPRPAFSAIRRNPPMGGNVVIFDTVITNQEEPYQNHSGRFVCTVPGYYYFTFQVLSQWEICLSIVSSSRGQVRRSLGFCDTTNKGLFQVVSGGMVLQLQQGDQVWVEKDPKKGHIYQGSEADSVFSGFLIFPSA
T8 sequence (P02746 28-253 limits assumed, chain 2 of 3): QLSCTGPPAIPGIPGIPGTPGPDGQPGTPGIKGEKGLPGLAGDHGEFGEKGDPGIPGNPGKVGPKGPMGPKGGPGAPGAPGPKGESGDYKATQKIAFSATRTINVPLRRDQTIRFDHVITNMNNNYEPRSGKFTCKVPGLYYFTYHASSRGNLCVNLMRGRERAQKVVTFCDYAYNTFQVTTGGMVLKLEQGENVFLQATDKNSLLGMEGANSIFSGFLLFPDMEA
T8 sequence (P02747 29-245 limits assumed, chain 3 of 3): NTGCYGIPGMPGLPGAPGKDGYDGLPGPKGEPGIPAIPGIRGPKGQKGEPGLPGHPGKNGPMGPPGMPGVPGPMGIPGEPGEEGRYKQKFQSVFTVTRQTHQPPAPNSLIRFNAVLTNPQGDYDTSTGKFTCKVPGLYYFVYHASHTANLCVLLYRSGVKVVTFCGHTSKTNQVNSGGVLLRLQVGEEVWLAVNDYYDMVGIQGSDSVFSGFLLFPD
Experimental: The antigen used was a human C1q protein (hC1q).
First, a 96-well maxisorp plate (Thermo fisher) was coated at 4° C. overnight with 50 μL of solutions containing each antibody prepared at 30, 10, 3, 1, 0.3, 0.1, and 0.03 μg/mL in PBS. Each well of the plate was washed with Wash buffer to remove the antibody not bound to the plate, and then the wells were blocked with 200 μL of Blocking/dilution Buffer at room temperature for 2 hours or longer. After the Blocking/dilution Buffer was removed from each well, hC1q (Calbiochem) prepared such that the final concentration was 3 μg/mL in Blocking/dilution Buffer was added at 50 μL per well. The plate was then allowed to stand at room temperature for 1 hour to allow hC1q to bind to the antibody within each well. After washing with Wash Buffer, 50 μL of an HRP-conjugated anti-hC1q antibody (AbDSerotec) diluted with Blocking/dilution Buffer was added to each well, and the plate was incubated while standing for 1 hour. After washing with Wash Buffer, TMB single solution (Invitrogen) was added. The color development reaction of the solution in each well was stopped by addition of Stop Buffer, and then the developed color was measured by absorbance at 450 nm and 690 nm.

[19] = biological target: T4, hFcγRIIaH on hFcγRIIaH-expressing …; experiment: cell-based or functional assay

EC50 value (hFcγRIIIaV ADCC Reporter Bioassay, Hepa1-6/hEREG target cells) [1] [µg/mL]	Relative value to KD between G1d and hFcgRs [2]	Relative value to KD between G1d and hFcgRs [3]	Relative value to KD between G1d and hFcgRs [4]	Relative value to KD between G1d and hFcgRs [5]	Relative value to KD between G1d and hFcgRs [6]	Relative value to KD between G1d and hFcgRs [7]	Kd [8] [nM]	Kd [9] [nM]	Kd [10] [nM]	Kd [11] [nM]	Kd [12] [nM]	A/I ratio (KD for FcγRIIb divided by KD for each FcγR) [13]	A/I ratio (KD for FcγRIIb divided by KD for each FcγR) [14]	A/I ratio (KD for FcγRIIb divided by KD for each FcγR) [15]	A/I ratio (KD for FcγRIIb divided by KD for each FcγR) [16]	Kd [17] [nM]	binding result [18]	EC50 value (hFcγRIIaH ADCP Reporter Bioassay, Hepa1-6/hEREG target cells) [19] [µg/mL]	Binder
0.000413	4.9	141	0.7	1.3	2.4	97.5	231	21	1270	0.0381	3.67	63.3	694	11.5	3970	14600	binds	0.0367	H240-Kn496/L73-k0//H240-Hl516/L73-k0 (antibody, human IgG1, kappa, also called EGL-ART11; ART11) heavy 1: QDQLVQSGAEVKKPGASVKVSCKASGFNIKDTYIQWVRQAPGQGLEWMGRIDPLRKQTKYREKFEGRVTITADTSTNTAYMELSSLRSEDTAVYYCVRSGREFDYWGQGTLVTVSSASTKGPSVFPLAPSSKSTSGGTAALGCLVKDYFPEPVTVSWNSGALTSGVHTFPAVLQSSGLYSLSSVVTVPSSSLGTQTYICNVNHKPSNTKVDKKVEPKSCDKTHTCPPCPAPEFQWGPMVFLFPPKPKDVLMISRTPEVTCVVVDVSDEEPEVKFNWYVDGVEVHNAKTKPREEQYNATYRVVSVLPVLHQDWLNGKEYKCKVSNKALPAPIEKTISKAKGQPREPQVCTLPPSRDELTKNQVSLWCLVKGFYPSDIAVEWESNGQPENNYKTTPPVLDSDGSFFLYSKLTVDKSRWQQGNVFSCSVMHEALHNHYTQKSLSLSP heavy 2: QDQLVQSGAEVKKPGASVKVSCKASGFNIKDTYIQWVRQAPGQGLEWMGRIDPLRKQTKYREKFEGRVTITADTSTNTAYMELSSLRSEDTAVYYCVRSGREFDYWGQGTLVTVSSASTKGPSVFPLAPSSKSTSGGTAALGCLVKDYFPEPVTVSWNSGALTSGVHTFPAVLQSSGLYSLSSVVTVPSSSLGTQTYICNVNHKPSNTKVDKKVEPKSCDKTHTCPPCPAPELLGGPSVFLFPPKPKDVLMISRTPEVTCVVVDVSHEEPEVKFNWYVDGVEVHNAKTKPREEQYNATYRVVSVLPVLHQDWLNGKEYKCKVSNDALPAPIEETISKAKGQPREPQVYTLPPSRCELTKNQVSLSCAVKGFYPSDIAVEWESNGQPENNYKTTPPVLDSDGSFFLVSKLTVDKSRWQQGNVFSCSVMHEALHNHYTQKSLSLSP light: DIQMTQSPSSLSASVGDRVTITCRASQDIHKYIAWYQQKPGQAPRLLIQYTSTLQPGVPSRFSGSGSGTDYTFTISSLQPEDIATYYCLQYEQLRTFGGGTKVEIKRTVAAPSVFIFPPSDEQLKSGTASVVCLLNNFYPREAKVQWKVDNALQSGNSQESVTEQDSKDSTYSLSSTLTLSKADYEKHKVYACEVTHQGLSSPVTKSFNRGEC
0.000107	2.7	1290	1.4	1.5	3.4	566	420	2.29	1100	0.0267	0.634	17.3	3160	6.6	11400	7250	binds	0.0419	H240-Kn494/L73-k0//H240-Hl514/L73-k0 (antibody, human IgG1, kappa, also called EGL-ART10; ART10) heavy 1: QDQLVQSGAEVKKPGASVKVSCKASGFNIKDTYIQWVRQAPGQGLEWMGRIDPLRKQTKYREKFEGRVTITADTSTNTAYMELSSLRSEDTAVYYCVRSGREFDYWGQGTLVTVSSASTKGPSVFPLAPSSKSTSGGTAALGCLVKDYFPEPVTVSWNSGALTSGVHTFPAVLQSSGLYSLSSVVTVPSSSLGTQTYICNVNHKPSNTKVDKKVEPKSCDKTHTCPPCPAPEFQWGPMVFLFPPKPKDVLMISRTPEVTCVVVDVSDEEPEVKFNWYVDGVEVHNAKTKPREEQYNATYRVVSVLPVLHQDWLNGKEYKCKVSNKALPAPEEKTISKAKGQPREPQVCTLPPSRDELTKNQVSLWCLVKGFYPSDIAVEWESNGQPENNYKTTPPVLDSDGSFFLYSKLTVDKSRWQQGNVFSCSVMHEALHNHYTQKSLSLSP heavy 2: QDQLVQSGAEVKKPGASVKVSCKASGFNIKDTYIQWVRQAPGQGLEWMGRIDPLRKQTKYREKFEGRVTITADTSTNTAYMELSSLRSEDTAVYYCVRSGREFDYWGQGTLVTVSSASTKGPSVFPLAPSSKSTSGGTAALGCLVKDYFPEPVTVSWNSGALTSGVHTFPAVLQSSGLYSLSSVVTVPSSSLGTQTYICNVNHKPSNTKVDKKVEPKSCDKTHTCPPCPAPELLGGPSVFLFPPKPKDVLMISRTPEVTCVVVDVSHEEPEVKFNWYVDGVEVHNAKTKPREEQYNATYRVVSVLPVLHQDWLNGKEYKCKVSNDALPAPEEETISKAKGQPREPQVYTLPPSRCELTKNQVSLSCAVKGFYPSDIAVEWESNGQPENNYKTTPPVLDSDGSFFLVSKLTVDKSRWQQGNVFSCSVMHEALHNHYTQKSLSLSP light: DIQMTQSPSSLSASVGDRVTITCRASQDIHKYIAWYQQKPGQAPRLLIQYTSTLQPGVPSRFSGSGSGTDYTFTISSLQPEDIATYYCLQYEQLRTFGGGTKVEIKRTVAAPSVFIFPPSDEQLKSGTASVVCLLNNFYPREAKVQWKVDNALQSGNSQESVTEQDSKDSTYSLSSTLTLSKADYEKHKVYACEVTHQGLSSPVTKSFNRGEC
